From article PMC3930596, “Insights into the Initiation of JC Virus DNA Replication Derived from the Crystal Structure of the T-Antigen Origin Binding Domain”

Assays:
[1] = target: JCV T-antigen origin-binding domain (residues 132-261) with tartrate-modified Lys168 (crystal form 3) (JC virus); assay: crystal structure; crystal form 3, space group P4_(1), 1.32 Å, one molecule in the asymmetric unit; 0.19 M sodium tartrate, 19% PEG 3350, 4 C; contacts with symmetry mates
[2] = target: JCV T-antigen origin-binding domain (OBD; residues 132-261) (JC virus); assay: crystal structure; crystal form 1, space group C2, 1.64 Å, two molecules in the asymmetric unit; 0.1 M sodium citrate pH 5.6, 30% PEG 3350, 18 C; interfaces analysed with PISA
[3] = target: JCV T-antigen origin-binding domain (OBD; residues 132-261) (JC virus); assay: crystal structure; crystal form 2, space group I4_(1), 2.6 Å; 0.1 M Tris pH 8.5, 0.2 M LiSO4, 30% PEG 4000, 4 C; contacts with symmetry mates
[4] = target: T1, JCV T-antigen origin-binding domain (OBD) (JC virus (JCV), UniProt P03072 132-261); assay: ITC; ITC (VP-ITC): 10 mM sodium phosphate pH 7.0, 50 mM NaCl; temperature not stated; OBD in syringe (~80 uM for Site II, 40 uM for Site I), DNA 1.5 uM / 1.0 uM; settings: protein: recombinant; tags: N-terminal GST removed by thrombin; chain copies: 4; blunt
T1 sequence: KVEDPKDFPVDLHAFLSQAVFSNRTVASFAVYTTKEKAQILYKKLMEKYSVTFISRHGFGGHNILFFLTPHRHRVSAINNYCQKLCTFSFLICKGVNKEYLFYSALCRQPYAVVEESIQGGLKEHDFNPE

[5] = target: T1, JCV T-antigen origin-binding domain …; assay: ITC; average of four titrations; titration shown in Fig. 4A ~278 nM; N = 4 OBDs per duplex; ITC (VP-ITC): 10 mM sodium phosphate pH 7.0, 50 mM NaCl; temperature not stated; OBD in syringe (~80 uM for Site II, 40 uM for Site I), DNA 1.5 uM / 1.0 uM; settings: protein: recombinant; tags: N-terminal GST removed by thrombin; chain copies: 4; blunt

Work on “JCV T-antigen origin-binding domain (residues 132-261) with tartrate-modified Lys168 (crystal form 3) (domain or fragment)” yielded a stoichiometry N [1] of 4.

Molecule “JCV T-antigen origin-binding domain (OBD; residues 132-261) (domain or fragment)” has a stoichiometry N [2] of 4 and a stoichiometry N [3] of 4.

B1: JCV Site I 28 bp (dsDNA)
DNA 1: GCGTGGAGGCTTTTTAGGAGGCCAGGGA
DNA 2: TCCCTGGCCTCCTAAAAAGCCTCCACGC
Work on B1 yielded a Kd [4] of 18.3 nM.

B2: JCV Site II 33 bp (dsDNA)
DNA 1: TACAGGAGGCCGAGGCCGCCTCCGCCTCCAAGC
DNA 2: GCTTGGAGGCGGAGGCGGCCTCGGCCTCCTGTA
With B2 the Kd [5] was 299 nM.
